Measurements taken from patent US20110300138A1 (published 2011).

How the values were obtained:
Test in all cases: cell-based or functional assay
[1] = target: wild type TSHR expressed in CHO cells (human) (UniProt P16473)
[2] = target: human TSHR with Glu251 mutated to Ala expressed in CHO cells (human) (UniProt P16473)
[3] = target: wild type TSHR expressed in CHO cells (human) (UniProt P16473); remark: listed apart in the source
[4] = target: TSHR with Lys250 mutated to Ala (expressed in CHO cells) (human) (UniProt P16473)

Substance “5B3 IgG (human monoclonal antibody to GAD, negative control for K1-70)” has a % inhibition of TSH stimulation; 5B3 10 µg/mL [1] of 5%, a % inhibition of TSH stimulation; 5B3 100 µg/mL [1] of 11% and a Cyclic AMP produced; 5B3 10 µg/mL + TSH 3 ng/mL [1] of 92.9 pmol/mL. For the same substance, the Cyclic AMP produced; 5B3 100 µg/mL + TSH 3 ng/mL [1] was 86.3 pmol/mL, the % inhibition of TSH stimulation; 5B3 10 µg/mL [2] was 10% and the % inhibition of TSH stimulation; 5B3 100 µg/mL [2] was 0%. For the same substance, the Cyclic AMP produced; 5B3 10 µg/mL + TSH 3 ng/mL [2] was 68.7 pmol/mL, the Cyclic AMP produced; 5B3 100 µg/mL + TSH 3 ng/mL [2] was 76.7 pmol/mL and the Mutated/wild type (%) of cyclic AMP produced; 5B3 10 µg/mL + TSH 3 ng/mL [2] was 74%. For the same substance, the Mutated/wild type (%) of cyclic AMP produced; 5B3 100 µg/mL + TSH 3 ng/mL [2] was 89%, the % inhibition of TSH stimulation; 5B3 10 µg/mL; Experiment 1 [3] was 0.1% and the % inhibition of TSH stimulation; 5B3 10 µg/mL; Experiment 2 [3] was 0%. For the same substance, the % inhibition of TSH stimulation; 5B3 100 µg/mL; Experiment 1 [3] was 0%, the % inhibition of TSH stimulation; 5B3 100 µg/mL; Experiment 2 [3] was 0% and the Cyclic AMP produced; 5B3 10 µg/mL + TSH 3 ng/mL; Experiment 1 [3] was 77.8 pmol/mL. It also gave a Cyclic AMP produced; 5B3 10 µg/mL + TSH 3 ng/mL; Experiment 2 [3] of 90.6 pmol/mL, a Cyclic AMP produced; 5B3 100 µg/mL + TSH 3 ng/mL; Experiment 1 [3] of 79.9 pmol/mL and a Cyclic AMP produced; 5B3 100 µg/mL + TSH 3 ng/mL; Experiment 2 [3] of 87.5 pmol/mL. The % inhibition of TSH stimulation; 5B3 10 µg/mL; Experiment 1 [4] was 0%, the % inhibition of TSH stimulation; 5B3 10 µg/mL; Experiment 2 [4] was 14% and the % inhibition of TSH stimulation; 5B3 100 µg/mL; Experiment 1 [4] was 0%. The % inhibition of TSH stimulation; 5B3 100 µg/mL; Experiment 2 [4] was 1%, the Cyclic AMP produced; 5B3 10 µg/mL + TSH 3 ng/mL; Experiment 1 [4] was 67.7 pmol/mL and the Cyclic AMP produced; 5B3 10 µg/mL + TSH 3 ng/mL; Experiment 2 [4] was 47.1 pmol/mL. The Cyclic AMP produced; 5B3 100 µg/mL + TSH 3 ng/mL; Experiment 1 [4] was 66.1 pmol/mL, the Cyclic AMP produced; 5B3 100 µg/mL + TSH 3 ng/mL; Experiment 2 [4] was 54.7 pmol/mL and the Mutated/wild type (%) of cyclic AMP produced; 5B3 10 µg/mL + TSH 3 ng/mL; Experiment 1 [4] was 87%. It also gave a Mutated/wild type (%) of cyclic AMP produced; 5B3 10 µg/mL + TSH 3 ng/mL; Experiment 2 [4] of 52%, a Mutated/wild type (%) of cyclic AMP produced; 5B3 100 µg/mL + TSH 3 ng/mL; Experiment 1 [4] of 83% and a Mutated/wild type (%) of cyclic AMP produced; 5B3 100 µg/mL + TSH 3 ng/mL; Experiment 2 [4] of 62%.
